# Data published in US20170283834A1, “Processes for Producing A Fermentation Product Using A Fermenting Organism” (Novozymes A/S, priority 2014, published 2017).
# B1: JTP140: protease variant of SEQ ID NO: 3: D79L S87P N98C A112P G135C D142L (protein, listed as Thermoascus aurantiacus)
# chain: MRLVASLTALVALSVPVFPAAVNVKRASSYLEITLSQVSNTLIKAVVQNTGSDELSFVHLNFFKDPAPVKKVSVYRDGSEVQFEGILSRYKSTGLSRDAFTYLAPGESVEDVFDIASTYDLTSGGPVTIRTEGVVPYATANSTDIAGYISYSSNVLTIDVDGAAAATVSKAITPLDRRTRISSCSGSRQSALTTALRNAASLANAAADAAQSGSASKFSEYFKTTSSSTRQTVAARLRAVAREASSSSSGATTYYCLDPYGYCSPNVLAYTLPSYCIIANCDIFYTYLPPLTSTCHAQDQATTALHEFTHAPCVYSPGTLDLAYGYQAAMGLSSSQAVMNADTYALYANAIYLGC
# B2: JTP146: protease variant of SEQ ID NO: 3: S50P D79L S87P A112P D142L (protein, listed as Thermoascus aurantiacus)
# chain: MRLVASLTALVALSVPVFPAAVNVKRASSYLEITLSQVSNTLIKAVVQNTGSDELSFVHLNFFKDPAPVKKVSVYRDGSEVQFEGILSRYKSTGLSRDAFTYLAPGESVEDVFDIASTYDLTSGGPVTIRTEGVVPYATANSTDIAGYISYSSNVLTIDVDGAAAATVSKAITPLDRRTRISSCSGSRQSALTTALRNAASLANAAADAAQSGSASKFSEYFKTTSSPTRQTVAARLRAVAREASSSSSGATTYYCLDPYGYCSPNVLAYTLPSYNIIANCDIFYTYLPPLTSTCHAQDQATTALHEFTHAPGVYSPGTLDLAYGYQAAMGLSSSQAVMNADTYALYANAIYLGC
# B3: JTP145: protease variant of SEQ ID NO: 3: S49P D79L S87P A112P D142L (protein, listed as Thermoascus aurantiacus)
# chain: MRLVASLTALVALSVPVFPAAVNVKRASSYLEITLSQVSNTLIKAVVQNTGSDELSFVHLNFFKDPAPVKKVSVYRDGSEVQFEGILSRYKSTGLSRDAFTYLAPGESVEDVFDIASTYDLTSGGPVTIRTEGVVPYATANSTDIAGYISYSSNVLTIDVDGAAAATVSKAITPLDRRTRISSCSGSRQSALTTALRNAASLANAAADAAQSGSASKFSEYFKTTSPSTRQTVAARLRAVAREASSSSSGATTYYCLDPYGYCSPNVLAYTLPSYNIIANCDIFYTYLPPLTSTCHAQDQATTALHEFTHAPGVYSPGTLDLAYGYQAAMGLSSSQAVMNADTYALYANAIYLGC
# B4: JTP143: protease variant of SEQ ID NO: 3: S36P D79L S87P A112P D142L (protein, listed as Thermoascus aurantiacus)
# chain: MRLVASLTALVALSVPVFPAAVNVKRASSYLEITLSQVSNTLIKAVVQNTGSDELSFVHLNFFKDPAPVKKVSVYRDGSEVQFEGILSRYKSTGLSRDAFTYLAPGESVEDVFDIASTYDLTSGGPVTIRTEGVVPYATANSTDIAGYISYSSNVLTIDVDGAAAATVSKAITPLDRRTRISSCSGSRQSALTTALRNAASLANAAADAAQSGPASKFSEYFKTTSSSTRQTVAARLRAVAREASSSSSGATTYYCLDPYGYCSPNVLAYTLPSYNIIANCDIFYTYLPPLTSTCHAQDQATTALHEFTHAPGVYSPGTLDLAYGYQAAMGLSSSQAVMNADTYALYANAIYLGC
# B5: JTP161: protease variant of SEQ ID NO: 3: D79L Y82F S87G A112P D142L (protein, listed as Thermoascus aurantiacus)
# chain: MRLVASLTALVALSVPVFPAAVNVKRASSYLEITLSQVSNTLIKAVVQNTGSDELSFVHLNFFKDPAPVKKVSVYRDGSEVQFEGILSRYKSTGLSRDAFTYLAPGESVEDVFDIASTYDLTSGGPVTIRTEGVVPYATANSTDIAGYISYSSNVLTIDVDGAAAATVSKAITPLDRRTRISSCSGSRQSALTTALRNAASLANAAADAAQSGSASKFSEYFKTTSSSTRQTVAARLRAVAREASSSSSGATTYYCLDPFGYCSGNVLAYTLPSYNIIANCDIFYTYLPPLTSTCHAQDQATTALHEFTHAPGVYSPGTLDLAYGYQAAMGLSSSQAVMNADTYALYANAIYLGC
# B6: JTP144: protease variant of SEQ ID NO: 3: A37P D79L S87P A112P D142L (protein, listed as Thermoascus aurantiacus)
# chain: MRLVASLTALVALSVPVFPAAVNVKRASSYLEITLSQVSNTLIKAVVQNTGSDELSFVHLNFFKDPAPVKKVSVYRDGSEVQFEGILSRYKSTGLSRDAFTYLAPGESVEDVFDIASTYDLTSGGPVTIRTEGVVPYATANSTDIAGYISYSSNVLTIDVDGAAAATVSKAITPLDRRTRISSCSGSRQSALTTALRNAASLANAAADAAQSGSPSKFSEYFKTTSSSTRQTVAARLRAVAREASSSSSGATTYYCLDPYGYCSPNVLAYTLPSYNIIANCDIFYTYLPPLTSTCHAQDQATTALHEFTHAPGVYSPGTLDLAYGYQAAMGLSSSQAVMNADTYALYANAIYLGC
# B7: JTP180: protease variant of SEQ ID NO: 3: S70V D79L Y82F S87G Y97W A112P D142L (protein, listed as Thermoascus aurantiacus)
# chain: MRLVASLTALVALSVPVFPAAVNVKRASSYLEITLSQVSNTLIKAVVQNTGSDELSFVHLNFFKDPAPVKKVSVYRDGSEVQFEGILSRYKSTGLSRDAFTYLAPGESVEDVFDIASTYDLTSGGPVTIRTEGVVPYATANSTDIAGYISYSSNVLTIDVDGAAAATVSKAITPLDRRTRISSCSGSRQSALTTALRNAASLANAAADAAQSGSASKFSEYFKTTSSSTRQTVAARLRAVAREASSSVSGATTYYCLDPFGYCSGNVLAYTLPSWNIIANCDIFYTYLPPLTSTCHAQDQATTALHEFTHAPGVYSPGTLDLAYGYQAAMGLSSSQAVMNADTYALYANAIYLGC
# B8: JTP148: protease variant of SEQ ID NO: 3: D79L S87P D104P A112P D142L (protein, listed as Thermoascus aurantiacus)
# chain: MRLVASLTALVALSVPVFPAAVNVKRASSYLEITLSQVSNTLIKAVVQNTGSDELSFVHLNFFKDPAPVKKVSVYRDGSEVQFEGILSRYKSTGLSRDAFTYLAPGESVEDVFDIASTYDLTSGGPVTIRTEGVVPYATANSTDIAGYISYSSNVLTIDVDGAAAATVSKAITPLDRRTRISSCSGSRQSALTTALRNAASLANAAADAAQSGSASKFSEYFKTTSSSTRQTVAARLRAVAREASSSSSGATTYYCLDPYGYCSPNVLAYTLPSYNIIANCPIFYTYLPPLTSTCHAQDQATTALHEFTHAPGVYSPGTLDLAYGYQAAMGLSSSQAVMNADTYALYANAIYLGC
# B9: JTP141: protease variant of SEQ ID NO: 3: D79L S87P A112P D142L T141C M161C (protein, listed as Thermoascus aurantiacus)
# chain: MRLVASLTALVALSVPVFPAAVNVKRASSYLEITLSQVSNTLIKAVVQNTGSDELSFVHLNFFKDPAPVKKVSVYRDGSEVQFEGILSRYKSTGLSRDAFTYLAPGESVEDVFDIASTYDLTSGGPVTIRTEGVVPYATANSTDIAGYISYSSNVLTIDVDGAAAATVSKAITPLDRRTRISSCSGSRQSALTTALRNAASLANAAADAAQSGSASKFSEYFKTTSSSTRQTVAARLRAVAREASSSSSGATTYYCLDPYGYCSPNVLAYTLPSYNIIANCDIFYTYLPPLTSTCHAQDQATTALHEFTHAPGVYSPGCLDLAYGYQAAMGLSSSQAVCNADTYALYANAIYLGC
# Test system: zein
# Experiment: Relative activity assay of protease variants (zein micro titer plate)
# Format: biochemical
# Conditions: Table 5, upper part
# Experimental: Each well contains 200 microL of 0.05-0.1% of zein (Sigma), 0.25 mM ZnSO4 and 1% of agar in 20 mM sodium acetate buffer, pH 4.5.
# Yeast clones on SC-glucose were inoculated to a well of a 96-well micro titre plate containing YPD+Zn medium and cultivated at 28° C. for 3 days. The culture supernatants were applied to a 96-well zein micro titer plate and incubated at at least 2 temperatures (ex. 60° C. and 65° C., 70° C. and 75° C., 70° C. and 80° C.) for more than 4 hours or overnight. The turbidity of zein in the plate was measured as A630 and the relative activity (higher/lower temperatures) was determined as an indicator of thermoactivity improvement. The clones with higher relative activity than the parental variant were selected and the sequence was determined.
Molecule,Relative activity 75° C./70° C. [%],Relative activity 80° C./70° C. [%],Relative activity 85° C./70° C. [%]
B1,81,–,–
B2,83,63,–
B3,82,59,–
B4,69,–,–
B5,–,30,12
B6,57,–,–
B7,–,52,–
B8,76,64,–
B9,68,–,–
